Measured values as given in paper PMC7614228, “Structural maturation of SYCP1-mediated meiotic chromosome synapsis by SYCE3” (Nature structural & molecular biology, 2023).
Residue numbers refer to the chain shown, from its start. Numbers in names are those of the source. Where “and” joins values, the source holds several entries; their conditions need not be identical. Identical values can stand only once.

B1: SYCP1αN (amino-acids 101-362) (domain or fragment, human, UniProt Q15431 101-362, looked up)
chain: GLSRVYSKLYKEAEKIKKWKVSTEAELRQKESKLQENRKIIEAQRKAIQELQFGNEKVSLKLEEGIQENKDLIKENNATRHLCNLLKETCARSAEKTKKYEYEREETRQVYMDLNNNIEKMITAFEELRVQAENSRLEMHFKLKEDYEKIQHLEQEYKKEINDKEKQVSLLLIQITEKENKMKDLTFLLEESRDKVNQLEEKTKLQSENLKQSIEKQHHLTKELEDIKVSLQRSVSTQKALEEDLQIATKTICQLTEEKETQ
notes: SYCP1 α-helical N-terminal region, amino-acids 101-362; source: E. coli BL21(DE3), purified, alone or co-expressed and co-purified with SYCE3
B2: MBP-SYCP1αN (domain or fragment, human, UniProt Q15431 101-362, looked up)
chain: B1 chain
notes: SYCP1αN, amino-acids 101-362; source: E. coli BL21(DE3), co-purified with His-SYCE3
B3: SYCP1αN V105E L109E (domain or fragment, human, UniProt Q15431 101-362, looked up)
chain: B1 chain with V5E, L9E
notes: SYCP1αN, amino-acids 101-362, with V105E L109E; source: E. coli BL21(DE3), in complex with SYCE3
B4: SYCP1 αCore-ΔNtip (amino-acids 112-783) (domain or fragment, human, UniProt Q15431 112-783, looked up)
chain: EAEKIKKWKVSTEAELRQKESKLQENRKIIEAQRKAIQELQFGNEKVSLKLEEGIQENKDLIKENNATRHLCNLLKETCARSAEKTKKYEYEREETRQVYMDLNNNIEKMITAFEELRVQAENSRLEMHFKLKEDYEKIQHLEQEYKKEINDKEKQVSLLLIQITEKENKMKDLTFLLEESRDKVNQLEEKTKLQSENLKQSIEKQHHLTKELEDIKVSLQRSVSTQKALEEDLQIATKTICQLTEEKETQMEESNKARAAHSFVVTEFETTVCSLEELLRTEQQRLEKNEDQLKILTMELQKKSSELEEMTKLTNNKEVELEELKKVLGEKETLLYENKQFEKIAEELKGTEQELIGLLQAREKEVHDLEIQLTAITTSEQYYSKEVKDLKTELENEKLKNTELTSHCNKLSLENKELTQETSDMTLELKNQQEDINNNKKQEERMLKQIENLQETETQLRNELEYVREELKQKRDEVKCKLDKSEENCNNLRKQVENKNKYIEELQQENKALKKKGTAESKQLNVYEIKVNKLELELESAKQKFGEITDTYQKEIEDKKISEENLLEEVEKAKVIADEAVKLQKEIDKRCQHKIAEMVALMEKHKHQYDKIIEERDSELGLYKSKEQEQSSLRASLEIELSNLKAELLSVKKQLEIEREEKEKLKREAKE
notes: SYCP1 α-helical core without the αNtip, amino-acids 112-783; also called SYCP1's full α-helical core, in which αNtips were deleted; source: E. coli BL21(DE3), purified, alone or in complex with SYCE3
B5: SYCP1αN ΔNtip (domain or fragment, human, UniProt Q15431 112-362, looked up)
chain: EAEKIKKWKVSTEAELRQKESKLQENRKIIEAQRKAIQELQFGNEKVSLKLEEGIQENKDLIKENNATRHLCNLLKETCARSAEKTKKYEYEREETRQVYMDLNNNIEKMITAFEELRVQAENSRLEMHFKLKEDYEKIQHLEQEYKKEINDKEKQVSLLLIQITEKENKMKDLTFLLEESRDKVNQLEEKTKLQSENLKQSIEKQHHLTKELEDIKVSLQRSVSTQKALEEDLQIATKTICQLTEEKETQ
notes: SYCP1αN (101-362) with the αNtip (101-111) deleted; also called SYCP1 ΔNtip; source: E. coli BL21(DE3), co-purified with SYCE3
B6: SYCE3 P53Q (natural protein, human, UniProt A1L190 1-88, looked up)
chain: MDDADPEERNYDNMLKMLSDLNKDLEKLLEEMEKISVQATWMAYDMVVMRTNQTLAESMRRLEDAFVNCKEEMEKNWQELLHETKQRL
notes: SYCE3 with P53Q; source: E. coli BL21(DE3), co-purified with SYCP1αNcore; not shown: His or His-MBP, N-terminal, cleaved
B7: His-SYCE3 (full-length, amino-acids 1-88) (natural protein, human, UniProt A1L190 1-88, looked up)
chain: B6 chain with Q53P
notes: SYCE3, full-length = amino-acids 1-88; source: E. coli BL21(DE3), co-expressed with MBP fusions; in lysate (amylose pull-down) or co-purified; not shown: His, N-terminal, kept
B8: MBP-SYCE3 (natural protein, human, UniProt A1L190 1-88, looked up)
chain: B6 chain with Q53P
notes: SYCE3 without a stated truncation; source: E. coli BL21(DE3), co-purified with SYCP1αNcore constructs
B9: SYCE3 W41E Y44E (natural protein, human, UniProt A1L190 1-88, looked up)
chain: B6 chain with W41E, Y44E, Q53P
notes: SYCE3 with W41E Y44E; also called SYCE3 WY; WY mutant; source: E. coli BL21(DE3), purified, alone or co-purified with SYCP1 constructs; not shown: His or His-MBP, N-terminal, cleaved
B10: SYCP1αNcore (amino-acids 206-362) (domain or fragment, human, UniProt Q15431 206-362, looked up)
chain: ETRQVYMDLNNNIEKMITAFEELRVQAENSRLEMHFKLKEDYEKIQHLEQEYKKEINDKEKQVSLLLIQITEKENKMKDLTFLLEESRDKVNQLEEKTKLQSENLKQSIEKQHHLTKELEDIKVSLQRSVSTQKALEEDLQIATKTICQLTEEKETQ
notes: SYCP1 αNcore (tetrameric core), amino-acids 206-362; Tetramer alone (SEC-MALS); two chains in the 2:1 complex with SYCE3; also called SYCP1 tetrameric core; source: E. coli BL21(DE3), purified alone or co-expressed and co-purified with SYCE3 (amylose, TEV, anion exchange, SEC); not shown: MBP, N-terminal, cleaved
B11: MBP-SYCP1αNcore (amino-acids 206-362) (domain or fragment, human, UniProt Q15431 206-362, looked up)
chain: B10 chain
notes: SYCP1 αNcore (tetrameric core), amino-acids 206-362; source: E. coli BL21(DE3), co-expressed with SYCE3 constructs; in lysate (amylose pull-down) or co-purified (amylose, anion exchange, SEC); not shown: MBP, N-terminal, kept
B12: SYCE3 α1-α2 (amino-acids 12-88) (domain or fragment, human, UniProt A1L190 12-88, looked up)
chain: DNMLKMLSDLNKDLEKLLEEMEKISVQATWMAYDMVVMRTNPTLAESMRRLEDAFVNCKEEMEKNWQELLHETKQRL
notes: SYCE3 α1-α2, amino-acids 12-88; source: E. coli BL21(DE3), co-purified with SYCP1αNcore; not shown: His or His-MBP, N-terminal, cleaved

Legend:
[1] = target: the molecule itself; assay: SEC-MALS; co-expressed and co-purified SYCP1-SYCE3 complexes, 5-20 mg/ml; 20 mM Tris pH 8.0, 150 mM KCl, 2 mM DTT (Superose 6 Increase for MBP-SYCP1αN-His-SYCE3)
[2] = target: the molecule itself; assay: SEC-MALS; proteins in isolation, 5-20 mg/ml; Superdex 200 Increase, 20 mM Tris pH 8.0, 150 mM KCl, 2 mM DTT
[3] = target: B10; assay: SEC-MALS; co-expressed and co-purified SYCP1-SYCE3 complexes, 5-20 mg/ml; 20 mM Tris pH 8.0, 150 mM KCl, 2 mM DTT (Superose 6 Increase for MBP-SYCP1αN-His-SYCE3); settings: both partners purified
[4] = target: B2; assay: as above; settings: both partners purified
[5] = target: B11; assay: as above; settings: both partners purified
[6] = target: B10; assay: ITC; SYCE3 (400 μM) injected into SYCP1αNcore (70 μM) at 30°C; 25 mM Tris pH 8.0, 250 mM KCl, 2 mM DTT; apparent affinity; settings: both partners purified
[7] = target: B1; assay: SEC-MALS; co-expressed and co-purified SYCP1-SYCE3 complexes, 5-20 mg/ml; 20 mM Tris pH 8.0, 150 mM KCl, 2 mM DTT (Superose 6 Increase for MBP-SYCP1αN-His-SYCE3); settings: both partners purified

| stoichiometry N [3] | Binder | stoichiometry N [1] | also measured |
| --- | --- | --- | --- |
|  | B1 | 2 SYCP1 chains in the 2:1 complex with SYCE3 and 4 SYCP1 chains in the 4:2 complex with SYCE3 |  |
|  | B2 | 2 SYCP1 chains in the 2:1 complex with SYCE3 and 4 SYCP1 chains in the 4:2 complex with SYCE3 |  |
|  | B3 | 2 SYCP1 chains in the complex with SYCE3 |  |
|  | B4 | 2 SYCP1 chains in the complex with SYCE3 | stoichiometry N [2]: 4 |
|  | B5 | 2 SYCP1 chains in the complex with SYCE3 |  |
| 2 SYCP1 chains per SYCE3 chain | B6 |  |  |
|  | B7 |  | stoichiometry N [4]: 2 SYCP1 chains per SYCE3 chain (2:1) and 4 SYCP1 chains with 2 SYCE3 chains (4:2); stoichiometry N [5]: 2 SYCP1 chains per SYCE3 chain |
| 2 SYCP1 chains per SYCE3 chain | B8 |  | stoichiometry N [5]: 2 SYCP1 chains per SYCE3 chain |
| 2 SYCP1 chains per SYCE3 chain | B9 |  | Kd [6]: 16 nM; apparent KD of one replicate [6]: 10 nM and 22 nM and 16 nM; stoichiometry N [7]: 2 SYCP1 chains per SYCE3 chain |
|  | B10 | 2 SYCP1 chains in the complex with SYCE3 | stoichiometry N [2]: 4 |
|  | B11 | 2 SYCP1 chains in the complex with SYCE3 |  |
| 2 SYCP1 chains per SYCE3 chain | B12 |  |  |
